Test results reported in patent US20210324089A1 (ACCELERON PHARMA, published 2021).

Molecular target: T1, human ALK7-Fc comprising protein (human, UniProt Q8NER5 22-113, limits assumed)
T1 construct: The wording 'ALK7-Fc comprising protein' leaves open whether further chains are present; also called human ALK7-Fe comprising protein; not shown: Fc portion
T1 sequence: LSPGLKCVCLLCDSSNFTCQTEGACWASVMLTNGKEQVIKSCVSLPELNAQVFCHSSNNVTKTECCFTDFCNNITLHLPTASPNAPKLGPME
Assay: SPR (Biacore T100/T200); antibody captured on FAB chip, ALK7-Fc comprising protein as analyte; 1:1 fit
Method: Experiments were performed using a Biacore T100/T200 biosensor (Biacore/GE Healthcare) at 25 and 37° C. ALK7 antibodies were captured on custom made FAB chip. A concentration series of ALK7-Fc comprising protein was injected over the flow cells at a flow rate of […]. To obtain kinetic rate constants the corrected data were fit to a 1:1 interaction model using BiaEvaluation software (GE Healthcare). The equilibrium binding constant KD was determined by the ratio of binding rate constants kd/ka.

B1: L01 (antibody, V domains shown)
VH: QVQLVQSGAEVKKPGSSVKVSCKASGGTFSSYAISWVRQAPGQGLEWMGSIIPIFGTANYAQKFQGRVTITADESTSTAYMELSSLRSEDTAVYYCARDPVGARYEVFDYWGQGTLVTVSS
VL: EIVMTQSPATLSVSPGERATLSCRASQSVSSNLAWYQQKPGQAPRLLIYSASTRATGIPARFSGSGSGTEFTLTISSLQSEDFAVYYCQQANTFPLTFGGGTKVEIK
notes: Human IgG from yeast libraries; also called LOL
- koff: 0.000367 s⁻¹
